Columns and labels:
[1] = target: T1, purified recombinant IFNAR-1 extracellular fragment (human, UniProt P17181 28-436); assay: Biacore, antibody on immobilized soluble IFNAR-1, maximal response, mean of four
T1 construct: extracellular domain; also called soluble IFNAR-1; soluble IFNAR
T1 sequence (looked up): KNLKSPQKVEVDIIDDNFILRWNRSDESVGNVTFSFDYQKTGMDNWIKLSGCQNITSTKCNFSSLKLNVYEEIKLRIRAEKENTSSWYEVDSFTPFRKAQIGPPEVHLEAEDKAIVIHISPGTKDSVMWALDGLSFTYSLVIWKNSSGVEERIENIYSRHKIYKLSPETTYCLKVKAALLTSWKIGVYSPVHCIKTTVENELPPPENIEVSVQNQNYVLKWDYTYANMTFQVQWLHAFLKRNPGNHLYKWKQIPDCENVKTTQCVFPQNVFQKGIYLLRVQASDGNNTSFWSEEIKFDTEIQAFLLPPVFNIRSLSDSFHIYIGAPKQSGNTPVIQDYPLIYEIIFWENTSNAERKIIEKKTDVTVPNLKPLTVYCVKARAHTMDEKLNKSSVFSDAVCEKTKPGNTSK
Method: Additional combination variants heavy chain DI M3-B and light chain DI K1-C were also made. These combination variants were also tested for binding to IFNAR-1. […] Binding analysis was done by Biacore, with the antibody bound to immobilized soluble IFNAR-1. Maximal response was determined at two concentrations and values shown are mean of four determinations.

[2] = target: T1, purified recombinant IFNAR-1 …; assay: Biacore, antibody captured on anti-human IgG Fc, soluble IFNAR 25-400 nM, flow cell 2-1 low density capture
[3] = target: T1, purified recombinant IFNAR-1 …; assay: Biacore, antibody captured on anti-human IgG Fc, soluble IFNAR 25-400 nM, flow cell 4-3 higher density capture
[4] = target: T1, purified recombinant IFNAR-1 …; assay: Biacore, response on IFNAR-1 (flow cell 2) divided by response on anti-human IgG Fc (flow cell 4)
Description: A series of antibodies were constructed with reduced numbers of potential T-cell epitopes. These included heavy chain variants M3-A and M3-B in which residues were changed in CDR regions and DI M3 in which framework residues were altered. De-immunized light chains were also constructed termed K1-C, K1-D, K1-E and DI K1. The antibodies were expressed and purified before analysis by Biacore. A Biacore chip was used with IFNAR-1 coated on Flow cell 2 at 690 RU and anti-human IgG Fc on flow cell 4 at 5000 RU. Binding of the antibody to IFNAR-1 relative to anti-human IgG Fc was determined by the ratio of response at flow cell 2 divided by flow cell 4 (Fc2/Fc4).

IFNAR-1 on human cells = target: T2, IFNAR-1 on human cells (human, UniProt P17181 28-557); assay: cell-based or functional assay
T2 sequence (looked up): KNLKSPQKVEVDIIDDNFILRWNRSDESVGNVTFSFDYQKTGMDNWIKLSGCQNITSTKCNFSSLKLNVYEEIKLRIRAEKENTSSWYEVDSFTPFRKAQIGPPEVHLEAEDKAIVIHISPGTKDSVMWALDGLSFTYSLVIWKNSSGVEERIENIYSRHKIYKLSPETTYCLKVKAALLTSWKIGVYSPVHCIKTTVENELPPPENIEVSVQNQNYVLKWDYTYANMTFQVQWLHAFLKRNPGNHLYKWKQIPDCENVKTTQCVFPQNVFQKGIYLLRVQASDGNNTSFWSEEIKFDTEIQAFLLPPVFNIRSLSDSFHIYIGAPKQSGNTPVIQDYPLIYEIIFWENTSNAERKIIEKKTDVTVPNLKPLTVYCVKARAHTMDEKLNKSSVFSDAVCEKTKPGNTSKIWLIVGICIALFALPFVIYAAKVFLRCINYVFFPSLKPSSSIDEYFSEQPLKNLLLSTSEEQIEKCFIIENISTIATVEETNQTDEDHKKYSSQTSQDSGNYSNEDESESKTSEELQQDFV

B1: DI M3-B heavy chain with K1-C light chain (Example 3) (antibody, V domains shown)
VH: EVQLLESGGGLVQPGGSLRLSCAASGFTMSTSGMGIGWIRQTPGKGLEWVAHIWWDDDKYYNPSLKARFTISRDTSKNTLYLQMNSLRAEDTAVYYCARNYYPYDAWFDYWGQGTLVTVS
VL: DIQMTQSPSSLSASVGDRVTITCSASTSINSNHLHWYQQKPGKAPKLLIYRTSILASGVPSRFSGSGSGTSFTLTISSLQPEDFATYYCQQGSNIPFTFGQGTKVEIKR
notes: also called DIM3-B K1-C; DI M3-B K1-C
For B1, which “% response relative to H3K1” value [1] is on record?
The value was 100%.

And the Kd [2]?
Its Kd is 0.502 nM.

What about the koff [2] of the same binder?
Its koff is 2.82e-06 s⁻¹.

What about the kon [2] of the same binder?
Its kon is 5610 M⁻¹ s⁻¹.

What about the Kd [3] of the same binder?
The Kd was 3.53 nM.

And the koff [3]?
The koff was 1.64e-05 s⁻¹.

What about the kon [3] of the same binder?
The kon was 4640 M⁻¹ s⁻¹.

B2: M3-B heavy chain with K1 light chain (antibody, human IgG4, V domains shown)
VH: EVQLLESGGGLVQPGGSLRLSCAFSGFTLSTSGMGIGWVRQAPGKGLEWVAHIWWDDDKYYNPSLKARFTISRDTSKNTVYLQMNSLRAEDTAVYYCARNYYPYDAWFDYWGQGTLVTVS
VL: DIQMTQSPSSLSASVGDRVTITCSASSSINSNHLHWYQQKPGKAPKLLIYRTSILASGVPSRFSGSGSGTSFTLTISSLQPEDFATYYCQQGSNIPFTFGQGTKVEIKR
notes: also called M3-B K1
What does the source list for B2?
% response relative to H3K1 [1]: 117%; % activity relative to H3K1 [4]: 103%; Fc2/Fc4 [4]: 0.31

B3: M3-B heavy chain with K1-C light chain (antibody, V domains shown)
VH: EVQLLESGGGLVQPGGSLRLSCAFSGFTLSTSGMGIGWVRQAPGKGLEWVAHIWWDDDKYYNPSLKARFTISRDTSKNTVYLQMNSLRAEDTAVYYCARNYYPYDAWFDYWGQGTLVTVS
VL: DIQMTQSPSSLSASVGDRVTITCSASTSINSNHLHWYQQKPGKAPKLLIYRTSILASGVPSRFSGSGSGTSFTLTISSLQPEDFATYYCQQGSNIPFTFGQGTKVEIKR
notes: also called M3-B K1-C
Which “% response relative to H3K1” value [1] does the source give for B3 here?
Its value is 156%.

And the Kd [2]?
The Kd was 7.47 nM.

And the koff [2]?
Its koff is 4.1e-05 s⁻¹.

And the kon [2]?
Its kon is 5490 M⁻¹ s⁻¹.

And the Kd [3]?
The Kd was 7.45 nM.

And the koff [3]?
The koff was 4.06e-05 s⁻¹.

And the kon [3]?
Its kon is 5460 M⁻¹ s⁻¹.

B4: DI M3-B K1C (h IgG1) (antibody, V domains shown)
VH: EVQLLESGGGLVQPGGSLRLSCAASGFTMSTSGMGIGWIRQTPGKGLEWVAHIWWDDDKYYNPSLKARFTISRDTSKNTLYLQMNSLRAEDTAVYYCARNYYPYDAWFDYWGQGTLVTVS
VL: DIQMTQSPSSLSASVGDRVTITCSASTSINSNHLHWYQQKPGKAPKLLIYRTSILASGVPSRFSGSGSGTSFTLTISSLQPEDFATYYCQQGSNIPFTFGQGTKVEIKR
Which results are given for B4?
Cell Proliferation (Daudi) IC50, cells cultured with interferon α2b (IFNAR-1 on human cells): 10 nM; ISRE-RG Reporter (U937) IC50, interferon α2b (IFNAR-1 on human cells): 4.6 nM

B5: M3 heavy chain with DI K1 light chain (antibody, human IgG4, V domains shown)
VH: EVQLLESGGGLVQPGGSLRLSCAFSGFTLSTSGMGIGWVRQAPGKGLEWVAHIWWDDDKYYNPSLKSRFTISRDTSKNTVYLQMNSLRAEDTAVYYCARNYYPYDAWFDYWGQGTLVTVS
VL: DIQMTQSPSSLSASVGDRATITCSASSSINSNHLHWYLQKPGKAPKALIYRTSILASGIPSRFSGSGSGTDFTLTISSLQPEDTATYYCQQGSNIPFTFGQGTKVEIKR
notes: also called M3 DI K1
With B5 as the binder, how does the “% response relative to H3K1” value [1] read?
The value was 25%.

What about the “% activity relative to H3K1” value [4] of the same binder?
The value was 57%.

What about the Fc2/Fc4 [4] of the same binder?
Its Fc2/Fc4 is 0.17.

B6: DI M3 heavy chain with DI K1 light chain (antibody, human IgG4, V domains shown)
VH: EVQLLESGGGLVQPGGSLRLSCAASGFTMSTSGMGIGWIRQTPGKGLEWVAHIWWDDDKYYNPSLKSRFTISKDTSKNTLYLQMNSLRAEDTAVYYCARNYYPYDAWFDYWGQGTLVTVS
VL: DIQMTQSPSSLSASVGDRATITCSASSSINSNHLHWYLQKPGKAPKALIYRTSILASGIPSRFSGSGSGTDFTLTISSLQPEDTATYYCQQGSNIPFTFGQGTKVEIKR
notes: also called DI M3 DI K1
With B6 as the binder, how does the “% response relative to H3K1” value [1] read?
Its value is 8%.

What about the “% activity relative to H3K1” value [4] of the same binder?
Its value is 20%.

And the Fc2/Fc4 [4]?
The Fc2/Fc4 was 0.06.

Source: patent US20050208041A1 (Bristol-Myers Squibb, published 2005)
